Here are results for 9 substances from patent publication US20120190623A1.

What is called Kd is the free concentration of one partner at which half of the binding sites on the other are occupied at equilibrium, for simple one-to-one binding. A low value points to higher affinity. What is called koff is a measure of how fast the partners let go of each other. The kon is the rate constant with which the complex forms. Read a high kon as faster complex formation.

For assay [1], the target named is A1/A3-C1-C2 heterodimer of thrombin-cleaved FVIII (human) (UniProt P00451). The experiment in a line: optical biosensor, purified protein after thrombin cleavage.
For assay [2], the target named is IR8 (90/b/73 R336I/R562K/R740A; del795-1688/Arg336Iso/Arg562Lys/Arg740Ala) (human) (UniProt P00451). As to the kind of experiment: cell-based or functional assay.
Assay [3] concerns the target wild-type factor VIII (FVIII WT) (human) (UniProt P00451). The experiment in a line: cell-based or functional assay.
In assay [4] the target is von Willebrand factor (vWF) (human) (UniProt P04275). The experiment in a line: ELISA and affinity biosensor analysis. A general note: ELISA stands for enzyme-linked immunosorbent assay.
The target is the same in assay [5]. As to the kind of experiment: summary of ELISA and biosensor results.
For assay [6] the target is unchanged. The experiment in a line: FVIII-vWF binding ELISA, anti-A2 domain trap, vWF from FVIII-deficient plasma, anti-vWF-HRP detection, no ESH8.
Assay [7] has the same target. The experiment in a line: biosensor (SPR), IR8 captured on immobilized anti-fVIII antibody; without ESH8.
Assay [8] addresses vWF (human) (UniProt P04275). As to the kind of experiment: biosensor (SPR), IR8 captured on immobilized anti-fVIII antibody; with ESH8.
Assay [9] concerns the target von Willebrand factor (vWF) (human) (UniProt P04275). The experiment in a line: in vitro binding to vWF, method not named in the sentence (ELISA / affinity biosensor).
Assay [10] shares this target. The experiment in a line: FVIII-vWF binding ELISA, anti-A2 domain trap, vWF from FVIII-deficient plasma, anti-vWF-HRP detection, with ESH8.
Assay [11] addresses vWF (human) (UniProt P04275). As to the kind of experiment: biosensor (SPR), fVIII captured on immobilized anti-fVIII antibody.
The target of assay [12] is IR8 (90/b/73 R336I/R562K/R740A; del795-1688/Arg336Iso/Arg562Lys/Arg740Ala) (human) (UniProt P00451). The experiment in a line: optical biosensor; IR8 captured on immobilized Mab NMC-VIII/5, vWF added at 10 nM.
Assay [13] shares this target. As to the kind of experiment: optical biosensor; IR8 (30 nM) captured on immobilized Mab NMC-VIII/5, vWF added at 10 nM.

IR8 (90/b/73 R336I/R562K/R740A; del795-1688/Arg336Iso/Arg562Lys/Arg740Ala) (human), sequence (P00451 other isoform, or with tags, fused parts or gaps R336I R562K R740A R562K R740A R336I R562K R740A R562K R740A, form in doubt): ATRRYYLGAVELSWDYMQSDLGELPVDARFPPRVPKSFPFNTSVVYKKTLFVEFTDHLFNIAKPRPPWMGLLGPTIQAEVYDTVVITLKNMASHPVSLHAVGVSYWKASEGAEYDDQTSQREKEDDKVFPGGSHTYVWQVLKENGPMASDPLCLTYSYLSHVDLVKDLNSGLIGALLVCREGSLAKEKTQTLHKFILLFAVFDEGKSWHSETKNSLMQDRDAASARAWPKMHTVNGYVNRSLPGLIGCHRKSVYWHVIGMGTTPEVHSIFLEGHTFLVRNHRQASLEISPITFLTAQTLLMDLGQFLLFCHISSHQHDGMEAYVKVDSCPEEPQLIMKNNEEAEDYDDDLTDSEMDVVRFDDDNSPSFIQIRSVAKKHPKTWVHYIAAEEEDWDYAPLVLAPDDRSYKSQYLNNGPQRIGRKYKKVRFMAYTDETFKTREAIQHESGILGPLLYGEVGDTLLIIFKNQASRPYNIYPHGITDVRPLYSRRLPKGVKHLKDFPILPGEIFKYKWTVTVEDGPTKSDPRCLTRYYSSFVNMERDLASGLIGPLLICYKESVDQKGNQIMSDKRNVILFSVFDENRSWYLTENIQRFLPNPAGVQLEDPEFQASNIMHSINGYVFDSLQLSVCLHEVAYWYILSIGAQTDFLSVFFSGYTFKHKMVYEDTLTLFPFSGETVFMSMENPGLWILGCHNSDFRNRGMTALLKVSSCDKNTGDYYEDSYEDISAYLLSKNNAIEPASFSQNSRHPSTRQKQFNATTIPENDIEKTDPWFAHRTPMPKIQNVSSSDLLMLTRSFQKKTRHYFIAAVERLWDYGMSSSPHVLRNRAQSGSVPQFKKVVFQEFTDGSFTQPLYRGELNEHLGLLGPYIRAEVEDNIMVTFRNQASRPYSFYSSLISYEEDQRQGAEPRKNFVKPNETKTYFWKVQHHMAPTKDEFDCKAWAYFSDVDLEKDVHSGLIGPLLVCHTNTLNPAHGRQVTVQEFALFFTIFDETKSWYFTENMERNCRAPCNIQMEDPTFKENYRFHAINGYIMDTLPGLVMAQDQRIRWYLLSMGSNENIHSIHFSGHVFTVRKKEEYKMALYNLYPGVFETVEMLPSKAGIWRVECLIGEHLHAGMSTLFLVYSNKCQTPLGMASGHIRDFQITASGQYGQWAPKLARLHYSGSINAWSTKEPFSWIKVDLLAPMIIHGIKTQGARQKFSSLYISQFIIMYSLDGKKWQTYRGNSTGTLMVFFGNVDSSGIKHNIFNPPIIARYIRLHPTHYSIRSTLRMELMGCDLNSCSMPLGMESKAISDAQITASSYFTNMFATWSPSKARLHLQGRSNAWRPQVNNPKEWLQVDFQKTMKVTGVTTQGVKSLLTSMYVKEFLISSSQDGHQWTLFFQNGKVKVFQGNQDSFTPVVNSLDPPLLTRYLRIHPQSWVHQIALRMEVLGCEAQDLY
A1/A3-C1-C2 heterodimer of thrombin-cleaved FVIII (human), sequence (P00451 20-391, chain 1 of 2): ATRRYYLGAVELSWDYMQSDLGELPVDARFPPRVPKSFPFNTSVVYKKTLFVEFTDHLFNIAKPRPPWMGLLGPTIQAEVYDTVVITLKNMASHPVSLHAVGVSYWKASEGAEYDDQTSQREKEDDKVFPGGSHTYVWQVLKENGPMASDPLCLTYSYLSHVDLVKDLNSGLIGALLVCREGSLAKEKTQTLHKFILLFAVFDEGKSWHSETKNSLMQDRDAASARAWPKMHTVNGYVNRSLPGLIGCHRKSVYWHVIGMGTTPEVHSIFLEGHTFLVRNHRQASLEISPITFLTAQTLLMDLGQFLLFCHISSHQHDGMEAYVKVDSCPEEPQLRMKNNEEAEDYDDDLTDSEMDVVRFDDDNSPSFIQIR
A1/A3-C1-C2 heterodimer of thrombin-cleaved FVIII (human), sequence (P00451 1709-2351, chain 2 of 2): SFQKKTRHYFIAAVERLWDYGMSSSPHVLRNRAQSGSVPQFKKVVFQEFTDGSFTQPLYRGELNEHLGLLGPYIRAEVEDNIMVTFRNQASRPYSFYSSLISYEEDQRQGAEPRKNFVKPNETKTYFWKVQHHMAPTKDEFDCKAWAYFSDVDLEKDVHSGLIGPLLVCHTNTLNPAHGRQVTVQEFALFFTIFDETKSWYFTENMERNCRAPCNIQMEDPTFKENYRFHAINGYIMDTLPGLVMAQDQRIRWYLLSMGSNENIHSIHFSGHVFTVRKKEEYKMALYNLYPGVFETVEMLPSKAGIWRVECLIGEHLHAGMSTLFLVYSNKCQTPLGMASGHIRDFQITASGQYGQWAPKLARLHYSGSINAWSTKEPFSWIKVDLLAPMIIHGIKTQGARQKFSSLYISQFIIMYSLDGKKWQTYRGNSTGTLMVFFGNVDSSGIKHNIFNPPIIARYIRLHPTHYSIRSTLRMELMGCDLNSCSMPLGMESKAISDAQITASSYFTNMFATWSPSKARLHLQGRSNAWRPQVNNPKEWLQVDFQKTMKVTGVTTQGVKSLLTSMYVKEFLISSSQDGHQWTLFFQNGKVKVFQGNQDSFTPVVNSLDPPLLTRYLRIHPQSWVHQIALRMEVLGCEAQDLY
IR8/ESH8, sequence (P00451 whole entry, one chain of several): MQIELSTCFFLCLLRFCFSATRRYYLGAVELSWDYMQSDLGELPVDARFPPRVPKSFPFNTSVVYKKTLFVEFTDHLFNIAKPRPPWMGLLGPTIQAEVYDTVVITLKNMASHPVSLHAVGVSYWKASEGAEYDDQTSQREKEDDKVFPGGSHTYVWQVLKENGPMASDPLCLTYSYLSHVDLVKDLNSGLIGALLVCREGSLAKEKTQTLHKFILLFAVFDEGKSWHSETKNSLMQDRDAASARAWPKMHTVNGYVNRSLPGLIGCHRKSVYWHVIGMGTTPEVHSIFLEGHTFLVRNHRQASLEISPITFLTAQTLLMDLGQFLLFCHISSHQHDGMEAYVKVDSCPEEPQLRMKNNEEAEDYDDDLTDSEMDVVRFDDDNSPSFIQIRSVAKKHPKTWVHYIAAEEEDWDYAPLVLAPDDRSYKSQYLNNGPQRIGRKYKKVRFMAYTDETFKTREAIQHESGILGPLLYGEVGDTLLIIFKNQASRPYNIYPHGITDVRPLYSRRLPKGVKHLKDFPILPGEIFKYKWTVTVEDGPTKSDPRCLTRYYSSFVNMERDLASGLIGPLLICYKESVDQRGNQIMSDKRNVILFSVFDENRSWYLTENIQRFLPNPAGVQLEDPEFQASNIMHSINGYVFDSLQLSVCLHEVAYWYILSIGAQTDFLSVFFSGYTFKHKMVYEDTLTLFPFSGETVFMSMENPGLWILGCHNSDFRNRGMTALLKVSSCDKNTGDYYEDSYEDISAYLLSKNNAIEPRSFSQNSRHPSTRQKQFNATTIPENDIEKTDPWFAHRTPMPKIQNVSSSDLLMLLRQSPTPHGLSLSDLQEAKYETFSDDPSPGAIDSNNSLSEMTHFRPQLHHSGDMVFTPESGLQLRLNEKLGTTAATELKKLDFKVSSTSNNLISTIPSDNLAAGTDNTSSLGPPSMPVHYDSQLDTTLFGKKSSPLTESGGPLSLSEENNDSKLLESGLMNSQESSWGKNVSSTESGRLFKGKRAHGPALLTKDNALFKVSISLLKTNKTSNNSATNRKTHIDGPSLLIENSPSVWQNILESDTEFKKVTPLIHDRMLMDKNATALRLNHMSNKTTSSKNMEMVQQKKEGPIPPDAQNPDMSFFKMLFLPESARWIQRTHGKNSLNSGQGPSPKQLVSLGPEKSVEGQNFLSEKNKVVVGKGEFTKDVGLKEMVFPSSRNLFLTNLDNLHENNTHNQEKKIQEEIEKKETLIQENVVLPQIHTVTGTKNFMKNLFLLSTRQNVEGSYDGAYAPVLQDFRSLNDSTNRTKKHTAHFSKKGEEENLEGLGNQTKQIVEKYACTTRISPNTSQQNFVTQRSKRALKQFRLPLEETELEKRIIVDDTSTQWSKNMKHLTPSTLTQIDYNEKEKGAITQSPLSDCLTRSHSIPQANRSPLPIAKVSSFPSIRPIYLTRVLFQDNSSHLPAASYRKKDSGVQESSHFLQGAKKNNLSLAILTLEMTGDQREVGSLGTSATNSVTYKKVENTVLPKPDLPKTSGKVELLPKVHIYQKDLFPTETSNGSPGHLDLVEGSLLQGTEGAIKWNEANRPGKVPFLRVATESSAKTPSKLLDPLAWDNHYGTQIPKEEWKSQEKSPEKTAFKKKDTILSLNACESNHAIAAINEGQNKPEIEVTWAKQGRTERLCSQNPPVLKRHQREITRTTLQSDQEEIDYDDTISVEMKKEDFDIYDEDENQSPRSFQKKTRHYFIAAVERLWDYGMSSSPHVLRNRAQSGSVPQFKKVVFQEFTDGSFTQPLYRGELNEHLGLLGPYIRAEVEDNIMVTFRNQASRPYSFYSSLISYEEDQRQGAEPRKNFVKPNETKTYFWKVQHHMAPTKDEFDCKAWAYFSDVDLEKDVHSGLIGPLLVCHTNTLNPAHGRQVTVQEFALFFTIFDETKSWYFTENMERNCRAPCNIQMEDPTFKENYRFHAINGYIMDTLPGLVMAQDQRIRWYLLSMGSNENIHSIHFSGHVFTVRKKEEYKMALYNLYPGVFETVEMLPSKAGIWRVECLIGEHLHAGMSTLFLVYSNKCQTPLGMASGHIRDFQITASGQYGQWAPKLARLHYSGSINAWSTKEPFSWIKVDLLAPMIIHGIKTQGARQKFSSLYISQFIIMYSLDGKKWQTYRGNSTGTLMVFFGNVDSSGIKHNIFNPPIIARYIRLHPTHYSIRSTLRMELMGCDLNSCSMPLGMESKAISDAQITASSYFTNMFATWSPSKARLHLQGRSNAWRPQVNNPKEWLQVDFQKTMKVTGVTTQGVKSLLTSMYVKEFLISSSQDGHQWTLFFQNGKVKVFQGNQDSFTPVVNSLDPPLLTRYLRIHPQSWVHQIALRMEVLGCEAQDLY

With “A2 subunit of thrombin-cleaved R698L B-domainless FVIII (from UniProt P00451 392-759)”, the fold increased rate of A2 subunit dissociation compared to a B domainless FVIII control in assay [1] was determined as 2 fold.
As to “A2 subunit of thrombin-cleaved R698W B-domainless FVIII (from UniProt P00451 392-759)”, the fold increased rate of A2 subunit dissociation compared to a B domainless FVIII control in [1] is 3 fold.
Regarding “ESH8, anti-light chain factor VIII mouse monoclonal antibody”, the % Of Initial Activity (APTT, 4 hour incubation at 37 C with FVIII-deficient plasma), + ESH8 (% of initial activity) amounted to 120 in assay [2] and 29 in assay [3].
For “IR8 (90/b/73 R336I/R562K/R740A; del795-1688/Arg336Iso/Arg562Lys/Arg740Ala) (from UniProt P00451 20-759; P00451 1708-2351)”, in [4], the fold reduced affinity compared to rFVIII was 20 fold. The substance also yielded a fold lower affinity than FVIII WT in assay [5] of 10 fold. In [6], this substance came in with a fold lower binding affinity compared to wild-type FVIII of 10 fold. In assay [7], this substance gave a Kd of 10.5 nM.
“IR8/ESH8 (from UniProt P00451 20-759; P00451 1708-2351)” showed a koff with vWF (human) [8] of 0.0025 s⁻¹.
“IR8/ESH8 complex (from UniProt P00451 20-759; P00451 1708-2351)” came in with a dissociation constant (Kd) in assay [9] of 1.3 nM. The same substance returned a fold lower binding affinity compared to wild-type FVIII in [10] of 2 fold.
In the case of pdfVIII, the Kd with vWF (human) [11] was 0.31 nM.
In [12], “von Willebrand factor (vWF) (from UniProt P04275 764-2813)” displayed a Kd of 29.6 nM and a koff of 0.0042 s⁻¹. In [13], this substance had a kon of 140000 M⁻¹ s⁻¹.
“wild-type factor VIII (FVIII WT) (from UniProt P00451 20-2351)” displayed a Kd in assay [9] of 0.3 nM.
